In paper doi:10.1101/2021.04.21.440744 (bioRxiv, 2021):

Target: the molecule itself
Assay: […]

B1: Ebola virus transmembrane glycoprotein GP (natural protein)
chain: IPLGVIHNSTLQVSDVDKLVCRDKLSSTNQLRSVGLNLEGNGVATDVPSATKRWGFRSGVPPKVVNYEAGEWAENCYNLEIKKPDGSECLPAAPDGIRGFPRCRYVHKVSGTGPCAGDFAFHKEGAFFLYDRLASTVIYRGTTFAEGVVAFLILPQAKKDFFSSHPLREPVNATEDPSSGYYSTTIRYQATGFGTNETEYLFEVDNLTYVQLESRFTPQFLLQLNETIYTSGKRSNTTGKLIWKVNPEIDTTIGEWAFWETKKNLTRKIRSEELSFTVVSNGAKNISGQSPARTSSDPGTNTTTEDHKIMASENSSAMVQVHSQGREAAVSHLTTLATISTSPQSLTTKPGPDNSTHNTPVYKLDISEATQVEQHHRRTDNDSTASDTPSATTAAGPPKAENTNTSKSTDFLDPATTTSPQNHSETAGNNNTHHQDTGEESASSGKLGLITNTIAGVAGLITGGRRTRREAIVNAQPKCNPNLHYWTTQDEGAAIGLAWIPYFGPAAEGIYIEGLMHNQDGLICGLRQLANETTQALQLFLRATTELRTFSILNRKAIDFLLQRWGGTCHILGPDCCIEPHDWTKNITDKIDQIIHDFVDKTLPDQGDNDNWWTGWRQWIPAGIGVTGVIIAVIALFCICKFVF
stoichiometry N: 3
